What was measured:
HLA-A*01:01 [1] = assay: IEDB peptide-MHC binding, purified MHC/competitive/fluorescence; ≥ and ≤ were set here for values at or beyond the usual limits of such assays; conditions: source organism: Zaire ebolavirus
HLA-A*02:01 [2] = assay: as above; conditions: source organism: Zaire ebolavirus
HLA-A*11:01 [3] = assay: as above; conditions: source organism: Zaire ebolavirus
HLA-B*15:01 [4] = assay: as above; conditions: source organism: Zaire ebolavirus
HLA-A*01:01 [5] = assay: IEDB peptide-MHC binding, purified MHC/direct/fluorescence; filed as Kd, often an IC50 or EC50 that approximates it; ≥ and ≤ were set here for values at or beyond the usual limits of such assays; conditions: source organism: Zaire ebolavirus
HLA-A*02:03 = assay: as above; conditions: source organism: Zaire ebolavirus
HLA-A*02:11 = assay: as above; conditions: source organism: Zaire ebolavirus
HLA-A*02:12 = assay: as above; conditions: source organism: Zaire ebolavirus
HLA-A*02:16 = assay: as above; conditions: source organism: Zaire ebolavirus
HLA-A*02:19 = assay: as above; conditions: source organism: Zaire ebolavirus
HLA-A*03:01 [6] = assay: as above; conditions: source organism: Zaire ebolavirus
HLA-A*23:01 = assay: as above; conditions: source organism: Zaire ebolavirus
HLA-A*24:03 = assay: as above; conditions: source organism: Zaire ebolavirus
HLA-A*29:02 = assay: as above; conditions: source organism: Zaire ebolavirus
HLA-A*68:02 = assay: as above; conditions: source organism: Zaire ebolavirus
HLA-A*02:01 [7] = assay: IEDB peptide-MHC binding, purified MHC/competitive/fluorescence; filed as Kd, often an IC50 or EC50 that approximates it; ≥ and ≤ were set here for values at or beyond the usual limits of such assays
HLA-A*26:01 = assay: as above; conditions: source organism: Zaire ebolavirus
HLA-A*69:01 = assay: as above
HLA-B*15:01 [8] = assay: as above
HLA-B*18:01 = assay: as above
HLA-B*27:03 = assay: as above; conditions: source organism: Zaire ebolavirus
HLA-B*39:01 = assay: as above
HLA-B*46:01 = assay: as above
HLA-B*51:01 = assay: as above; conditions: source organism: Zaire ebolavirus
HLA-B*57:01 = assay: as above; conditions: source organism: Zaire ebolavirus
HLA-A*01:01 [9] = assay: as above
HLA-A*11:01 [10] = assay: as above; conditions: source organism: Human immunodeficiency virus 1
HLA-A*30:01 = assay: as above
HLA-B*08:02 = assay: as above
HLA-B*15:17 = assay: as above; conditions: source organism: Human immunodeficiency virus 1
HLA-A*03:01 [11] = assay: as above; conditions: source organism: Corynebacterium glutamicum R
HLA-A*31:01 = assay: as above; conditions: source organism: Corynebacterium glutamicum R
HLA-B*07:02 = assay: as above; conditions: source organism: Corynebacterium glutamicum R
HLA-B*08:01 = assay: as above; conditions: source organism: Corynebacterium glutamicum R
HLA-B*27:05 = assay: as above; conditions: source organism: Corynebacterium glutamicum R
HLA-B*35:01 = assay: as above; conditions: source organism: Corynebacterium glutamicum R
HLA-B*40:01 = assay: as above; conditions: source organism: Corynebacterium glutamicum R
HLA-B*58:01 [12] = assay: as above; conditions: source organism: Corynebacterium glutamicum R
HLA-B*58:01 [13] = assay: IEDB peptide-MHC binding, purified MHC/direct/fluorescence; filed as Kd, often an IC50 or EC50 that approximates it; ≥ and ≤ were set here for values at or beyond the usual limits of such assays; conditions: source organism: Sudan ebolavirus - Maleo (1979)
HLA-B*15:02 = assay: IEDB peptide-MHC binding, purified MHC/competitive/fluorescence; filed as Kd, often an IC50 or EC50 that approximates it; ≥ and ≤ were set here for values at or beyond the usual limits of such assays
HLA-C*12:03 = assay: IEDB peptide-MHC binding, purified MHC/direct/fluorescence; filed as Kd, often an IC50 or EC50 that approximates it; ≥ and ≤ were set here for values at or beyond the usual limits of such assays; conditions: source organism: Bacillus anthracis str. A0488
HLA-C*14:02 = assay: as above; conditions: source organism: Bacillus anthracis str. A0488
HLA-C*15:02 = assay: as above; conditions: source organism: Bacillus anthracis str. A0488
[14] = source organism: Zaire ebolavirus
[15] = source organism: Human immunodeficiency virus 1
[16] = source organism: Corynebacterium glutamicum R

Work on ATEDPSSGY yielded an IC50 (HLA-A*01:01 [1]) of no less than 154 µM, an IC50 (HLA-A*02:01 [2]) of no less than 379 µM and an IC50 (HLA-A*11:01 [3]) of 49.6 µM. The IC50 (HLA-B*15:01 [4]) was no less than 97.2 µM, the Kd (HLA-A*01:01 [5]) was 438 nM and the Kd (HLA-A*02:03) was no less than 20 µM. For the same sequence, the Kd (HLA-A*02:11) was no less than 20 µM, the Kd (HLA-A*02:12) was no less than 20 µM and the Kd (HLA-A*02:16) was no less than 20 µM. For the same sequence, the Kd (HLA-A*02:19) was no less than 20 µM, the Kd (HLA-A*03:01 [6]) was no less than 20 µM and the Kd (HLA-A*23:01) was no less than 20 µM. The Kd (HLA-A*24:03) was no less than 20 µM, the Kd (HLA-A*29:02) was no less than 20 µM and the Kd (HLA-A*68:02) was no less than 20 µM. The Kd (HLA-A*02:01 [7]; [14]) was no less than 20 µM, the Kd (HLA-A*26:01) was no less than 20 µM and the Kd (HLA-A*69:01; [14]) was no less than 20 µM. The Kd (HLA-B*15:01 [8]; [14]) was no less than 20 µM, the Kd (HLA-B*18:01; [14]) was no less than 20 µM and the Kd (HLA-B*27:03) was no less than 20 µM. For the same sequence, the Kd (HLA-B*39:01; [14]) was no less than 20 µM, the Kd (HLA-B*46:01; [14]) was no less than 20 µM and the Kd (HLA-B*51:01) was no less than 20 µM. The Kd (HLA-B*57:01) was no less than 20 µM.

For GTEELKSLY, the Kd (HLA-A*01:01 [9]; [15]) was 0.0163 µM, the Kd (HLA-A*11:01 [10]) was no less than 20 µM and the Kd (HLA-A*30:01; [15]) was no less than 20 µM. It also gave a Kd (HLA-B*08:02; [15]) of no less than 20 µM, a Kd (HLA-B*15:17) of 59.5 nM and a Kd (HLA-B*39:01; [15]) of no less than 20 µM.

RYDDGQSIY showed a Kd (HLA-A*01:01 [9]; [16]) of 19.7 µM, a Kd (HLA-A*02:01 [7]; [16]) of no less than 20 µM and a Kd (HLA-A*03:01 [11]) of no less than 20 µM. The Kd (HLA-A*30:01; [16]) was no less than 20 µM, the Kd (HLA-A*31:01) was no less than 20 µM and the Kd (HLA-A*69:01; [16]) was no less than 20 µM. For the same sequence, the Kd (HLA-B*07:02) was no less than 20 µM, the Kd (HLA-B*08:01) was no less than 20 µM and the Kd (HLA-B*08:02; [16]) was no less than 20 µM. It also gave a Kd (HLA-B*15:01 [8]; [16]) of no less than 20 µM, a Kd (HLA-B*18:01; [16]) of no less than 20 µM and a Kd (HLA-B*27:05) of no less than 20 µM. For the same sequence, the Kd (HLA-B*35:01) was no less than 20 µM, the Kd (HLA-B*40:01) was no less than 20 µM and the Kd (HLA-B*46:01; [16]) was no less than 20 µM. For the same sequence, the Kd (HLA-B*58:01 [12]) was no less than 20 µM.

In the case of TGIVSSMHY, the Kd (HLA-A*02:03) is reported as no less than 20 µM, the Kd (HLA-A*02:11) is reported as no less than 20 µM and the Kd (HLA-A*02:12) is reported as no less than 20 µM. The Kd (HLA-A*02:19) was no less than 20 µM, the Kd (HLA-A*03:01 [6]) was no less than 20 µM and the Kd (HLA-A*23:01) was no less than 20 µM. The Kd (HLA-A*24:03) was no less than 20 µM, the Kd (HLA-A*68:02) was no less than 20 µM and the Kd (HLA-B*58:01 [13]) was no less than 20 µM. It also gave a Kd (HLA-A*02:01 [7]; [14]) of no less than 20 µM, a Kd (HLA-A*26:01) of no less than 20 µM and a Kd (HLA-A*69:01; [14]) of no less than 20 µM. The Kd (HLA-B*18:01; [14]) was no less than 20 µM, the Kd (HLA-B*27:03) was no less than 20 µM and the Kd (HLA-B*39:01; [14]) was no less than 20 µM. It also gave a Kd (HLA-B*46:01; [14]) of no less than 20 µM, a Kd (HLA-B*51:01) of no less than 20 µM and a Kd (HLA-B*57:01) of no less than 20 µM.

Work on YIRGVCSAF yielded a Kd (HLA-B*15:02; source organism: Vibrio parahaemolyticus RIMD 2210633) of 80.7 nM.

For YLARYSGSM, the Kd (HLA-C*12:03) was 300 nM, the Kd (HLA-C*14:02) was 30 nM and the Kd (HLA-C*15:02) was no less than 20 µM. The Kd (HLA-B*15:02; source organism: Bacillus anthracis str. A0488) was 12.3 nM.
